± gives the half width of the 95% confidence interval.
Experiment: folding stability dG unfold from chymotrypsin proteolysis; higher = more stable
In short: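 Designed mini-proteins (under 80 residues, no cysteine) in a PA-tagged cDNA display construct were digested with trypsin and chymotrypsin. Each protease was used at 11 concentrations (threefold dilutions) plus a no-protease condition, followed by sequencing. K50 was inferred by Bayesian fitting of sequencing counts, and unfolding free energy was derived against a sequence-predicted unfolded-state K50 and a shared folded-state K50, per protease or combined. Only designs with AlphaFold2 dimer inter-PAE above 15 were kept.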

Compared with “SAGGSVVTIVEVVPEDKKIVIKAPGNPITIPLENIKEIKLIPEKGYLEITINNTTIKVPLNNPNSISAGGSA [r2_48_JUSTAS]”, “SAGGSAGGSAGPIVLIKIKNKNGKEIEIEMSLEELKKKLPKELKNMKVEIVEVKEVKVEKSAGGSAGGSAGG [r11_353_TrROS_Hall]” is lower in “folding stability dG unfold” value: 1.09 ± 0.058 kcal/mol for the first, 0.315 ± 0.14 kcal/mol for the second.

Compared with “SAGGMKVVIYVKDPEKFLKAIEEIENIPLENVKFEPLEGDYYKYEFPNLEAVEELIKKGYDILKIEPSAGGS [r16_381_TrMRF]”, “SAMSLEDMTPEELEELVKELIEKLREELEKEGKTIKPGETIEIEIEVKGKKLKIKITVDKDGNIKIEVESAG [r14_501_TrROS_Hall]” is higher in “folding stability dG unfold” value: 2.57 ± 0.03 kcal/mol for the first, 3.03 ± 0.084 kcal/mol for the second.

Compared with “SAGGPVLRLSFPTRTPDGELVRVEVVYDPETGALLVRVYSLTRPNRAVLYLVDPENPLTVLRAEELPLSAGG [r13_400_TrMRF]”, “SAGGMKLVVTKVGEDDNTEYYLITDPGSAEAIREAIKKLVPKDLPYKVTVLSYDPATGTYTVLVEVKRSAGG [r13_491_JUSTAS]” is higher in “folding stability dG unfold” value: 3.01 ± 0.071 kcal/mol for the first, 3.67 ± 0.039 kcal/mol for the second.

Going from “SAGGGREIKVEFEIPHPNGNQMRITVTIYRSPGGIRIKIPVSYTDPEYRDYMREWAEYLARRIAKELSAGGS [r8_416_TrROS]” to “SAGGSAGGMKVEVVFLVPGEVFSKFTPPLSEDDPVLLVLVFDVPAPPPVPRYVYDPETGEWRPESAGGSAGG [r6_211_TrMRF]”, the “folding stability dG unfold” value rises from 3.571 ± 0.022 kcal/mol to 3.72 ± 0.099 kcal/mol.

First: SAGGPPIKKIEITKIHPGKGIIQVSIKLPGDGHPIMVRAEIDDPEPGKIKIEIQDPNNGQPQEITIKFSAGG [r13_337_TrROS]
Second: TTVTTPKNGLININLTDKKGNKYTFTAPVKDPVETLEKLKKLIKDLFPEYKDVKVKVVSVDGINIKVVVDIS [r1_389_TrMRF]
The “folding stability dG unfold” value of the first is lower: 0.683 ± 0.08 kcal/mol for the first, 3.57 ± 0.061 kcal/mol for the second.

Going from “SAEEVEIEIEIVIKMSEEEAERLAKELAEELARELGAEIVDVEVEVVEVDGELYVRIRVKIRLPKEELESAG [r14_219_TrROS_Hall]” to “SAGGSAGGMEVPPDQRVLVLDVEGTPEAIEAFAEELVRRGFDKPVAVVAVDPETGKVTIVVPEDSAGGSAGG [r6_652_TrMRF]”, the “folding stability dG unfold” value falls from 4.7 ± 0.17 kcal/mol to 1.06 ± 0.1 kcal/mol.

Compared with “SAGGSAGGSAGIKIVAPSPELADMIAKEIAKEFGLPGKIKDIEIEVIPYKPTPNGGYQPYSAGGSAGGSAGG [r17_237_TrROS]”, “SAGGSAGGSSVSVGVPSSYASVEVTVLKEEPGKGLVTVKVTTTVPGTGEVLTETVTIPRSELLSAGGSAGGS [r12_964_JUSTAS]” is higher in “folding stability dG unfold” value: -0.363 ± 0.75 kcal/mol for the first, 0.517 ± 0.043 kcal/mol for the second.

Going from “SAGMEVEWEIGDADEDGYVRLTVKAVLLIPETGKPVVVEAEIKMPIEELENEEVLKELARKVVEEAEAESAG [r5_964_TrMRF]” to “SAGGSAGGSAGGSKIENIKDIERNPNPDGHYMITIPNGWQIVVRMDKNGKMEIEIVPLKSAGGSAGGSAGGS [r4_177_TrROS]”, the “folding stability dG unfold” value falls from 2.1 ± 0.032 kcal/mol to 1.88 ± 0.039 kcal/mol.

First: SAGGSASLASLRKVGETVTYTITPDGTLTVTTHTFYRDPVTGELVVESTTTTTPIPPGDAAALAALSAGGSA [r15_207_JUSTAS]
Second: SAGGSAGGMVETKLVESEELPGNRRVLTYRVTEPDSLYRVTVELTLDPSGTVLSSKTTTEPIPLSAGGSAGG [r6_20_JUSTAS]
The “folding stability dG unfold” value of the first is higher: 2.37 ± 0.054 kcal/mol for the first, 1.12 ± 0.093 kcal/mol for the second.

Going from “FRFTIPLPDGKKIIIDYRPMPDGNYMFDVKLQLPNGKERTIPIMVPREEFPGMPMEEMAETMVKEALKKLKS [r1_92_TrROS]” to “SAGGSAGGSGSSSLLEETTDASGVRHLLTLVRLPGGKVLLVTTTVYPSGESTTTTEETDGSLLSAGGSAGGS [r12_995_JUSTAS]”, the “folding stability dG unfold” value falls from 3.4 ± 0.13 kcal/mol to 1.53 ± 0.036 kcal/mol.

Going from “SAGGSAMTVKVRLRVRRRVFNEDGELVAEEELELEVEVEVRPPPPPPPPPLTAEELAEKLGLEPEDSAGGSA [r15_572_TrROS_Hall]” to “SAGGSAGGMIVLPPGATVDFDPSVARLTVTVKDPNSDKSTTTTYDVPPTATVTSAPGTIVVNVPSAGGSAGG [r6_804_JUSTAS]”, the “folding stability dG unfold” value falls from 3.37 ± 0.074 kcal/mol to 0.476 ± 0.11 kcal/mol.

Compared with “SAGGSAGGSAGGETITIKNKKTNETVTIEKDKDGNYTITYPDGSKKTYKKGEKISKSALSAGGSAGGSAGGS [r10_98_TrROS_Hall]”, “MKKKVTISIKRKSEVKYTKFPNGEVVPVEDLGGLTVTIEVPESELEELLKKLDIPEDEIEEITVTITPEASS [r1_351_JUSTAS]” is lower in “folding stability dG unfold” value: 1.18 ± 0.14 kcal/mol for the first, -0.175 ± 0.8 kcal/mol for the second.

Compared with “SAGGSGPPVLVRLEVEVLGEPYTLTLPVPASLIHPSQRVRFRVRVVSVDPVNNRVTVRIESVELYPSAGGSA [r2_479_TrMRF]”, “SAGGSAKKKKTLKITLIIKVKTKEEAEKLAEELAEKLKKLLPEGAKIKVKVTVNKETGYVTVEIELSAGGSA [r15_981_TrROS_Hall]” is higher in “folding stability dG unfold” value: 3.018 ± 0.021 kcal/mol for the first, 3.64 ± 0.14 kcal/mol for the second.

First: SAGGSAGGVKIEVETRTETLPDGSTRTVMRVKIELPAPPPPPPPPTRTVTETTEDGETRTTTVRSAGGSAGG [r6_778_TrROS_Hall]
Second: SAGGSAGGSTLTVEIQITDADGNTLTAKVTLTFEPAPPPPPPPTVERRTTTVDGKTVTEYRRLSAGGSAGGS [r12_128_TrROS_Hall]
The “folding stability dG unfold” value of the first is higher: 2.07 ± 0.066 kcal/mol for the first, 1.04 ± 0.22 kcal/mol for the second.

Compared with “SAGGKKKYKLIIKIKFKKGDIDKAKKEVEAIANKIKDEFEKKGVKVKVKVSYDKDNDIVYIEVEFEVPSAGG [r13_755_TrMRF]”, “SAGGSAGGKRTVQIQFPMGPQWLDKLRDAFPNVDIEELEYDEGPGWHRIKIKVDSPEKIRDFIKSAGGSAGG [r6_334_TrROS]” is lower in “folding stability dG unfold” value: 4.43 ± 0.082 kcal/mol for the first, 1.41 ± 0.079 kcal/mol for the second.

With “SAGGSAKKKKKKKVKKVITIPVGGYKIEITYNKKTKKITVKVYKKNKNGKLLSEEEVKKLVKELLSSAGGSA [r15_735_TrROS_Hall]” the “folding stability dG unfold” value was 3.4 ± 0.2 kcal/mol.

Reference: the supplement of paper PMC12764529
